Test results published in patent publication US20180339017A1 (Merck Sharp & Dohme, published 2018).
Like-named read-outs stand apart in the source and are kept apart here. Starred links: 1 amine or outer side, 2 acyl side, 3 side chain; linkers in the order of their positions; H or OH if unused. Non-standard residues stand in square brackets, D forms with d. Groups on a side chain read outwards from the residue. No end group written: not given here. *: point of attachment. γGlu = O=C(O)[C@H](CCC(=O)[*:2])N[*:1]; Palmitoyl = CCCCCCCCCCCCCCCC(=O)*

Key:
Assay in all cases: cell-based or functional assay
human GLP-1 receptor [1] = biological target: T1, human GLP-1 receptor (human, UniProt P43220 24-463)
human glucagon receptor [2] = biological target: T2, human glucagon receptor (human, UniProt P47871 26-477)
T2 sequence (P47871 26-477): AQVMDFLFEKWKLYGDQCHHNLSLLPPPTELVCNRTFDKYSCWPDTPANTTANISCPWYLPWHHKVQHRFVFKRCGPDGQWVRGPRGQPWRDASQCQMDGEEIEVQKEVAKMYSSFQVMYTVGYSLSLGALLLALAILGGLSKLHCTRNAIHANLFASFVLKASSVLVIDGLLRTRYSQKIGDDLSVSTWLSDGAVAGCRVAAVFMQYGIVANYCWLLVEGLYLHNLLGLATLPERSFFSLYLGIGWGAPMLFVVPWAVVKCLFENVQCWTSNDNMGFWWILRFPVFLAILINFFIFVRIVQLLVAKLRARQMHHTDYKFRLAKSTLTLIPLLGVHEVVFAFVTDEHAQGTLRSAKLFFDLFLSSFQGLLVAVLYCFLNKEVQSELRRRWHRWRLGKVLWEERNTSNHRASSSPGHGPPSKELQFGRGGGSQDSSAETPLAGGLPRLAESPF

human GLP-1 receptor [3] = biological target: T1, human GLP-1 receptor; remark: listed apart in the source
human glucagon receptor [4] = biological target: T2, human glucagon receptor; remark: listed apart in the source

Binder	EC50 hGLP1R (cAMP activity assay) (human GLP-1 receptor [1])	EC50 hGCGR (cAMP activity assay) (human glucagon receptor [2])	EC50 hGLP1 (cAMP activity assay) (human GLP-1 receptor [3])	EC50 hGCGR (cAMP activity assay) (human glucagon receptor [4])
HSQGTFTSDYSKYLDSRRAHDFVQWLLNT-NH2 [PD29]	20 pM	20 pM	20 pM	20 pM
H[dS]QGTFTSDK([γGlu-γGlu-Palmitoyl])SKYLDSRRAHDFVQWLLNT-NH2 (N-terminus assumed; SMILES CCCCCCCCCCCCCCCC(=O)N[C@@H](CCC(=O)N[C@@H](CCC(=O)NCCCC[C@H](NC(=O)[C@H](CC(=O)O)NC(=O)[C@H](CO)NC(=O)[C@@H](NC(=O)[C@H](Cc1ccccc1)NC(=O)[C@@H](NC(=O)CNC(=O)[C@H](CCC(N)=O)NC(=O)[C@@H](CO)NC(=O)[C@@H](N)Cc1c[nH]cn1)[C@@H](C)O)[C@@H](C)O)C(=O)N[C@@H](CO)C(=O)N[C@@H](CCCCN)C(=O)N[C@@H](Cc1ccc(O)cc1)C(=O)N[C@@H](CC(C)C)C(=O)N[C@@H](CC(=O)O)C(=O)N[C@@H](CO)C(=O)N[C@@H](CCCNC(=N)N)C(=O)N[C@@H](CCCNC(=N)N)C(=O)N[C@@H](C)C(=O)N[C@@H](Cc1c[nH]cn1)C(=O)N[C@@H](CC(=O)O)C(=O)N[C@@H](Cc1ccccc1)C(=O)N[C@H](C(=O)N[C@@H](CCC(N)=O)C(=O)N[C@@H](Cc1c[nH]c2ccccc12)C(=O)N[C@@H](CC(C)C)C(=O)N[C@@H](CC(C)C)C(=O)N[C@@H](CC(N)=O)C(=O)N[C@H](C(N)=O)[C@@H](C)O)C(C)C)C(=O)O)C(=O)O) [TP535]			50 pM	20 pM
H[dS]QGTFTSDK([γGlu-γGlu-Palmitoyl])SKYLDARAAHDFVQWLLNT-NH2 (N-terminus assumed; SMILES CCCCCCCCCCCCCCCC(=O)N[C@@H](CCC(=O)N[C@@H](CCC(=O)NCCCC[C@H](NC(=O)[C@H](CC(=O)O)NC(=O)[C@H](CO)NC(=O)[C@@H](NC(=O)[C@H](Cc1ccccc1)NC(=O)[C@@H](NC(=O)CNC(=O)[C@H](CCC(N)=O)NC(=O)[C@@H](CO)NC(=O)[C@@H](N)Cc1c[nH]cn1)[C@@H](C)O)[C@@H](C)O)C(=O)N[C@@H](CO)C(=O)N[C@@H](CCCCN)C(=O)N[C@@H](Cc1ccc(O)cc1)C(=O)N[C@@H](CC(C)C)C(=O)N[C@@H](CC(=O)O)C(=O)N[C@@H](C)C(=O)N[C@@H](CCCNC(=N)N)C(=O)N[C@@H](C)C(=O)N[C@@H](C)C(=O)N[C@@H](Cc1c[nH]cn1)C(=O)N[C@@H](CC(=O)O)C(=O)N[C@@H](Cc1ccccc1)C(=O)N[C@H](C(=O)N[C@@H](CCC(N)=O)C(=O)N[C@@H](Cc1c[nH]c2ccccc12)C(=O)N[C@@H](CC(C)C)C(=O)N[C@@H](CC(C)C)C(=O)N[C@@H](CC(N)=O)C(=O)N[C@H](C(N)=O)[C@@H](C)O)C(C)C)C(=O)O)C(=O)O) [TP559]			50 pM	20 pM
H[dS]QGTFLSDYSKLLDSRAAQDFVQWLLQT-NH2 (N-terminus assumed; SMILES CC(C)C[C@H](NC(=O)[C@H](CC(C)C)NC(=O)[C@H](CCCCN)NC(=O)[C@H](CO)NC(=O)[C@H](Cc1ccc(O)cc1)NC(=O)[C@H](CC(=O)O)NC(=O)[C@H](CO)NC(=O)[C@H](CC(C)C)NC(=O)[C@H](Cc1ccccc1)NC(=O)[C@@H](NC(=O)CNC(=O)[C@H](CCC(N)=O)NC(=O)[C@@H](CO)NC(=O)[C@@H](N)Cc1c[nH]cn1)[C@@H](C)O)C(=O)N[C@@H](CC(=O)O)C(=O)N[C@@H](CO)C(=O)N[C@@H](CCCNC(=N)N)C(=O)N[C@@H](C)C(=O)N[C@@H](C)C(=O)N[C@@H](CCC(N)=O)C(=O)N[C@@H](CC(=O)O)C(=O)N[C@@H](Cc1ccccc1)C(=O)N[C@H](C(=O)N[C@@H](CCC(N)=O)C(=O)N[C@@H](Cc1c[nH]c2ccccc12)C(=O)N[C@@H](CC(C)C)C(=O)N[C@@H](CC(C)C)C(=O)N[C@@H](CCC(N)=O)C(=O)N[C@H](C(N)=O)[C@@H](C)O)C(C)C) [TP552]			5000 pM	20 pM
H[dS]QGTFLSDK([γGlu-γGlu-Palmitoyl])SKLLDSRRAQDFVQWLMQT-NH2 (N-terminus assumed; SMILES CCCCCCCCCCCCCCCC(=O)N[C@@H](CCC(=O)N[C@@H](CCC(=O)NCCCC[C@H](NC(=O)[C@H](CC(=O)O)NC(=O)[C@H](CO)NC(=O)[C@H](CC(C)C)NC(=O)[C@H](Cc1ccccc1)NC(=O)[C@@H](NC(=O)CNC(=O)[C@H](CCC(N)=O)NC(=O)[C@@H](CO)NC(=O)[C@@H](N)Cc1c[nH]cn1)[C@@H](C)O)C(=O)N[C@@H](CO)C(=O)N[C@@H](CCCCN)C(=O)N[C@@H](CC(C)C)C(=O)N[C@@H](CC(C)C)C(=O)N[C@@H](CC(=O)O)C(=O)N[C@@H](CO)C(=O)N[C@@H](CCCNC(=N)N)C(=O)N[C@@H](CCCNC(=N)N)C(=O)N[C@@H](C)C(=O)N[C@@H](CCC(N)=O)C(=O)N[C@@H](CC(=O)O)C(=O)N[C@@H](Cc1ccccc1)C(=O)N[C@H](C(=O)N[C@@H](CCC(N)=O)C(=O)N[C@@H](Cc1c[nH]c2ccccc12)C(=O)N[C@@H](CC(C)C)C(=O)N[C@@H](CCSC)C(=O)N[C@@H](CCC(N)=O)C(=O)N[C@H](C(N)=O)[C@@H](C)O)C(C)C)C(=O)O)C(=O)O) [TP536]			5000 pM	40 pM
HSQGTFTSDYSKYLDNKRAQDFVQWLMQT-NH2 [PD37]			50 pM	160 pM
H[dS]QGTFTSDK([γGlu-γGlu-Palmitoyl])SKYLDNKRAQDFVQWLMQT-NH2 (N-terminus assumed; SMILES CCCCCCCCCCCCCCCC(=O)N[C@@H](CCC(=O)N[C@@H](CCC(=O)NCCCC[C@H](NC(=O)[C@H](CC(=O)O)NC(=O)[C@H](CO)NC(=O)[C@@H](NC(=O)[C@H](Cc1ccccc1)NC(=O)[C@@H](NC(=O)CNC(=O)[C@H](CCC(N)=O)NC(=O)[C@@H](CO)NC(=O)[C@@H](N)Cc1c[nH]cn1)[C@@H](C)O)[C@@H](C)O)C(=O)N[C@@H](CO)C(=O)N[C@@H](CCCCN)C(=O)N[C@@H](Cc1ccc(O)cc1)C(=O)N[C@@H](CC(C)C)C(=O)N[C@@H](CC(=O)O)C(=O)N[C@@H](CC(N)=O)C(=O)N[C@@H](CCCCN)C(=O)N[C@@H](CCCNC(=N)N)C(=O)N[C@@H](C)C(=O)N[C@@H](CCC(N)=O)C(=O)N[C@@H](CC(=O)O)C(=O)N[C@@H](Cc1ccccc1)C(=O)N[C@H](C(=O)N[C@@H](CCC(N)=O)C(=O)N[C@@H](Cc1c[nH]c2ccccc12)C(=O)N[C@@H](CC(C)C)C(=O)N[C@@H](CCSC)C(=O)N[C@@H](CCC(N)=O)C(=O)N[C@H](C(N)=O)[C@@H](C)O)C(C)C)C(=O)O)C(=O)O) [TP534]			20 pM	10 pM
